Results: paper PMC11782079

These substances were tested against FaRel2-Δ166–206 (Coprobacillus sp. D7) (assay: ITC; ATfaRel2 or variant in the syringe at 200-150 uM, FaRel2 in the cell at 15-20 uM; 25 °C; 25 mM HEPES pH 7.6, 300 mM NaCl, 2 mM MgCl2, 1 mM TCEP).
“ATfaRel2 antitoxin (wild type) (natural protein)” was tested, and the Kd was 3300 nM.

What follows are substances tested against Coprobacillus sp. D7 FaRel2 toxin, catalytically impaired Y128F variant (Coprobacillus sp. D7) (assay: not given).
“Coprobacillus sp. D7 ATfaRel2 antitoxin (natural protein)” showed a stoichiometry N of 1.1.
ATfaRel2 Y54A (natural protein) gave a Kd of 8750 nM and a stoichiometry N of 0.92.
ATfaRel2 F59A (natural protein) gave a Kd of 2150 nM and a stoichiometry N of 0.99.
ATfaRel2 V43A (natural protein) gave a stoichiometry N of 0.97.
For ATfaRel2 Y51A (natural protein), the Kd was 1520 nM and the stoichiometry N was 0.9.
ATfaRel2 I45A (natural protein) gave a Kd of 868 nM and a stoichiometry N of 0.91.
ATfaRel2 A50M (natural protein) gave a stoichiometry N of 1.1.
